Source: article PMC4187121, “Flexible Enantioselectivity of Tryptophanase Attributable to Benzene Ring in Heterocyclic Moiety of D-Tryptophan” (Life : Open Access Journal, 2012)

Key:
[1] = tested on: T1, N[C@@H](Cc1c[nH]c2ccccc12)C(=O)O; test: L-tryptophan degradation by tryptophanase, kinetic and inhibition analysis (indole formation, Ehrlich reagent); assay type: biochemical, E. coli; conditions: other: L-tryptophan degradation, pH 8.3
T1 construct: purchased Sigma-Aldrich Co. (St. Louis, MO, USA)
Protocol: When tryptophanase degraded L-tryptophan, all reaction mixtures included 0.2 mM of pyridoxal 5′-phosphate and 0.23 μM of tryptophanase in 100 mM potassium phosphate buffer of pH 8.3. DAP concentrations were prepared to the required concentrations of 0, 0.6, 1.2, 1.9 or 3.1 M. L-tryptophan. The reaction mixture was prepared to a concentration of 98, 108, 128, 137, 147, 167, 196, 225, 245, 294, 343, 392, 490, 680 or 980μM for kinetic analyses. Reactions were performed at 37 °C for 30 min in a Dry Thermo Unit DTU-1B (Taitec, Tokyo, Japan). Although D-tryptophan in addition to L-tryptophan was also degraded into indole in the presence of DAP, an indole production amount from D-tryptophan was neglected at this reaction temperature and time because the catalytic efficiency for D-tryptophan was 0.3% of that for L-tryptophan. On the other hand, the reaction condition of D-tryptophan degradation differed in several ways from that of L-tryptophan degradation. Each concentration of pyridoxal 5′-phosphate and tryptophanase was 1.2 mM and 0.92μM, and additionally reaction temperature and time was 55 °C and 2 h, respectively. All the other reaction conditions were the same as in the L-tryptophan degradation.
The total volume of the reaction mixture was 2 mL per tube. The reaction was stopped by adding 2 mL of n-butanol, which was vigorously mixed and then immediately centrifuged at approximately 1,000 G for 10 min. After centrifugation, the reaction mixture was separated into two layers of butanol and aqueous solutions in which indole was equally distributed. The supernatant butanol layer was extracted to be mixed with an equal volume of Ehrlich reagent, then colored red at 60 °C for 30 min in Dry Thermo Unit. […] Tryptophanase activity was assayed in triplicate at the same substrate concentration and then averaged. Initial velocity was computed based on the averaged value.
(§1) Initial velocities were defined by indole that formed within 1 minute after 1 mg of tryptophanase was added. Then the reciprocal of (initial velocity/[E] (enzyme concentration)) (ordinate) versus the reciprocal of substrate concentration (abscissa) was drawn for each concentration of L- or D-tryptophan. These double-reciprocal plots were drawn based on the least squares method to calculate kinetic parameters. Kcatwas determined from the reciprocal of the intercepts of these double-reciprocal plots, and the Michaelis constant Km from substrate concentration at 1/v = 0 in the absence of inhibitor. In noncompetitive inhibition, two inhibition constants of Ki (=[E][I]/[EI], E: enzyme; I: inhibitor; EI: enzyme-inhibitor complex) and Ki' (=[ES][I]/[ESI], ES: enzyme-substrate complex; ESI: enzyme-substrate-inhibitor complex) were determined from the slopes and from the intercepts, respectively. In the mixed type inhibition, Ki and Ki' were determined from x and y coordinates of the fixed point in the second quadrant.

[2] = tested on: T2, N[C@H](Cc1c[nH]c2ccccc12)C(=O)O; test: D-tryptophan degradation by tryptophanase in the presence of 3.1 M DAP, kinetic and inhibition analysis; assay type: biochemical, E. coli; conditions: other: 3.1 M DAP, 55 °C, pH 8.3
T2 construct: purchased Sigma-Aldrich Co. (St. Louis, MO, USA)
Protocol: When tryptophanase degraded L-tryptophan, all reaction mixtures included 0.2 mM of pyridoxal 5′-phosphate and 0.23 μM of tryptophanase in 100 mM potassium phosphate buffer of pH 8.3. DAP concentrations were prepared to the required concentrations of 0, 0.6, 1.2, 1.9 or 3.1 M. L-tryptophan. The reaction mixture was prepared to a concentration of 98, 108, 128, 137, 147, 167, 196, 225, 245, 294, 343, 392, 490, 680 or 980μM for kinetic analyses. Reactions were performed at 37 °C for 30 min in a Dry Thermo Unit DTU-1B (Taitec, Tokyo, Japan). […]
as §1, with “Then the reciprocal of (initial velocity/[E] (enzyme concentration)) (ordinate) versus the reciprocal of substrate concentration (abscissa) was drawn for each concentration of L- or D-tryptophan. These double-reciprocal plots were drawn based on the least squares method to calculate kinetic parameters.” left out

Q: With tryptophanase (Escherichia coli K-12) as the substance, how does the Km ([1]; DAP 0 M) read?
A: The Km was 300 µM.

Q: What about the kcat ([1]; DAP 0 M) of the same substance?
A: The kcat was 0.4 s⁻¹.

Q: What about the kcat/Km ([1]; DAP 0 M) of the same substance?
A: The kcat/Km was 1300 M⁻¹ s⁻¹.

Q: What about the Km ([1]; DAP 0.6 M) of the same substance?
A: Its Km is 200 µM.

Q: What about the kcat ([1]; DAP 0.6 M) of the same substance?
A: Its kcat is 0.18 s⁻¹.

Q: And the kcat/Km ([1]; DAP 0.6 M)?
A: Its kcat/Km is 900 M⁻¹ s⁻¹.

Q: And the Km ([1]; DAP 1.2 M)?
A: Its Km is 200 µM.

Q: What about the kcat ([1]; DAP 1.2 M) of the same substance?
A: The kcat was 0.15 s⁻¹.

Q: And the kcat/Km ([1]; DAP 1.2 M)?
A: Its kcat/Km is 800 M⁻¹ s⁻¹.

Q: And the Km ([1]; DAP 1.9 M)?
A: The Km was 200 µM.

Q: And the kcat ([1]; DAP 1.9 M)?
A: Its kcat is 0.11 s⁻¹.

Q: What about the kcat/Km ([1]; DAP 1.9 M) of the same substance?
A: The kcat/Km was 600 M⁻¹ s⁻¹.

Q: What about the Km ([1]; DAP 3.1 M) of the same substance?
A: Its Km is 200 µM.

Q: And the kcat ([1]; DAP 3.1 M)?
A: Its kcat is 0.07 s⁻¹.

Q: And the kcat/Km ([1]; DAP 3.1 M)?
A: Its kcat/Km is 400 M⁻¹ s⁻¹.

Q: What about the Km [2] of the same substance?
A: Its Km is 600 µM.

Q: What about the kcat [2] of the same substance?
A: The kcat was 0.07 s⁻¹.
